These results are taken from US20100119494A1, “METHODS AND COMPOSITIONS RELATED TO MODULATING THE EXTRACELLULAR STEM CELL ENVIRONMENT” (Massachusetts Institute of Technology, priority 2005, published 2010).

For test [1], the system named is differentiating ES cells (J1). Kind of test: Flow cytometry of vWF in differentiating ES cells after enzymatic or pharmacological modification of HSGAGs. The format is cell-based, mouse. The note with it: FIG. 12B, Hep-I 1.5 μg/mL or Hep-III 2.5 μg/mL 30 minutes every day, sodium chlorate 10 mM in medium. The protocol: (§1) Mouse embryonic stem cells (J1) (gift from Bevin Engelward, Mass. Institute of Technology, Cambridge, Mass.) were grown in DMEM with 2 mM L-glutamine (GIBCO, Carlsbad, Calif.) adjusted to contain […] sodium pyruvate, 10 mM nonessential amino acids and 1.5 g/L sodium bicarbonate, with 15% fetal bovine serum (Hyclone, South Logan, Utah) and supplemented with 100 units/mL penicillin G (Sigma, St. Louis, Mo.), 100 μg/mL streptomycin sulfate (Sigma), 30 mM beta-mercaptoethanol (Sigma) and 1000 units/ml murine leukemia inhibitory factor, LIF (Chemicon, Temecula, Calif.). The cells were plated in 10 cm^2 cell culture dishes, coated with 0.1% gelatin B (Sigma) and grown at 37° C. in a 5% CO2 humidifier incubator. The culture medium was changed every 2 days. The cells were subcultured at a split ratio of 1:10 when they reached 80% to 90% confluency, using a 0.25% trypsin-EDTA solution (Sigma). To induce formation of embryoid bodies and differentiation into endothelial cells, J1 cells were plated at a density of 1.25×10^5 cells/100 mm dish, or 3×10^4 cells/6 wells and cultured in the absence of LIF. Fresh media was replenished every 2 days.
Heparinase III (Hep-III) was prepared as described previously (Godavarti, R., et al. (1996) Biochemistry 35, 6846-52). […] Treated cells were analyzed for differentiation into endothelial cells between day 3 and day 15. […]
Cells were harvested at various time points during differentiation, incubated with rat monoclonal antibody against CD16/CD32 (1:50 dilution, Pharmingen, San Diego, Calif.) to block Fey receptors and incubated further with a primary antibody against von Willebrand factor (vWF) (Dako (Carpinteria, Calif.), rabbit polyclonal, added at a 1:100 dilution). […] Cells were then washed twice and were incubated with FITC-conjugated secondary antibody (Jackson ImmunoResearch, West Grove, Pa.) in a 1:100 dilution, washed twice and taken up in OptiMEM (GIBCO/BRL, Carlsbad, Calif.) and analyzed on a Becton Dickinson (Franklin Lakes, N.J.) FACScan flow cytometer (excitation 488 nm, argon laser; emission 580/30). […]
For orientation: Flow cytometry measures light scatter and fluorescence of single cells or particles in a stream.

In test [2] the test system is differentiating ES cells (J1). Nature of the test: Real-time PCR of Oct-4, VEGF-R2, VE-cadherin and eNOS transcripts in differentiating ES cells. Format: cell-based, mouse. The following applies: real-time PCR, FIG. 19. The protocol: as §1
Heparinase III (Hep-III) was prepared as described previously (Godavarti, R., et al. (1996) Biochemistry 35, 6846-52). Heparinase I (Hep-I) was a generous gift of Momenta Pharmaceuticals (Cambridge, Mass.). Sodium chlorate and heparin were purchased from Sigma and Cambrex BioWhittaker (East Rutherford, N.J.), respectively. To enzymatically modify the HSGAG glycome signature of the cells, cells were washed with phosphate buffer saline (PBS) and incubated with Hep-I or Hep-III for 30 minutes every day at 37° C. in serum free DMEM. Digested HSGAG residues were removed by washing the cells, and cells were then fed with fresh media. In an additional experiment, cells were cultured with medium containing sodium chlorate, which blocks the sulfation of HSGAGs. In a reversal experiment, heparin was added to the culture to overcome the chlorate induced synthetic block. Treated cells were analyzed for differentiation into endothelial cells between day 3 and day 15. Hep-III was added to the cells at a concentration of 2.5 μg/mL, Hep-I was added at a concentration of 1.5 μg/mL, sodium chlorate at 10 mM and heparin (20 μg). The concentrations of enzymes were optimized to exhaustively cleave all cell surface HSGAGs in the given period of time. All enzymes and chemicals were diluted in serum free DMEM.
RNA was isolated from J1 cells using TRIzol (Invitrogen, Carlsbad, Calif.) and RNAlater (Qiagen, Valencia, Calif.) according to the manufacturer's protocol. Single-stranded cDNA was generated via oligo-dT primed reverse transcription, and genes serving as markers for differentiation were quantified using an Abi Prism 7700 real-time PCR thermocycler (Applied Biosystems, Foster City, Calif.). Expression levels were obtained for the marker genes Oct-4, VE-cadherin, VEGF-R2, and eNOS, with β-actin used as a control. PCR conditions involved denaturation for 10 min at 95° C., followed by 40 cycles of denaturation for 20 sec at 94° C., and annealing and extension for 1 min at 60° C. cDNA isolated from J1 cells and primers for the described genes were mixed with SYBR Green PCR Mastermix (Applied Biosystems) for real-time quantification according to the manufacturers instructions. Primers used were 5′-[…]-3′ (SEQ ID NO: 1) and 5′-[…]-3′ (SEQ ID NO: 2) for Oct-4; 5′-[…]-3′ (SEQ ID NO: 3) and 5′-[…]-3′ (SEQ ID NO: 4) for VE-cadherin; 5′-[…]-3′ (SEQ ID NO: 5) and 5′-[…]-3′ (SEQ ID NO: 6) for TIE-2; 5′-[…]-3′ (SEQ ID NO: 7) and 5′-[…]-3′ (SEQ ID NO: 8) for VEGF-R2; 5′-[…]-3′ (SEQ ID NO: 9) and 5% […]-3′ (SEQ ID NO: 10) for ENOS; 5′-[…]-'3 (SEQ ID NO: 11) and 5′-[…]-'3 (SEQ ID NO: 12) for 13-actin. The sulfotransferase primers and conditions were chosen. […]
(In general: In qPCR the cycle at which signal appears reflects the starting amount.)

Consider `[O-][Cl+2]([O-])O` [sodium chlorate, reference compound], for which the “decrease of the proportion of cells expressing detectable levels of vWF” value (from here on “decrease”) in test [1] was “approximately 5 fold”. Further, in test [2], the Oct-4 transcript levels result was “no effect”, the VE-cadherin transcript levels entry was “significantly decreased” and the eNOS transcript levels entry is “significantly decreased”.

B1: Hep-III: HSGAG-degrading enzyme; cleaves HSGAGs at undersulfated regions (protein, UniProt Q59289 25-659, looked up)
Heparin-sulfate lyase: QSSSITRKDFDHINLEYSGLEKVNKAVAAGNYDDAAKALLAYYREKSKAREPDFSNAEKPADIRQPIDKVTREMADKALVHQFQPHKGYGYFDYGKDINWQMWPVKDNEVRWQLHRVKWWQAMALVYHATGDEKYAREWVYQYSDWARKNPLGLSQDNDKFVWRPLEVSDRVQSLPPTFSLFVNSPAFTPAFLMEFLNSYHQQADYLSTHYAEQGNHRLFEAQRNLFAGVSFPEFKDSPRWRQTGISVLNTEIKKQVYADGMQFELSPIYHVAAIDIFLKAYGSAKRVNLEKEFPQSYVQTVENMIMALISISLPDYNTPMFGDSWITDKNFRMAQFASWARVFPANQAIKYFATDGKQGKAPNFLSKALSNAGFYTFRSGWDKNATVMVLKASPPGEFHAQPDNGTFELFIKGRNFTPDAGVFVYSGDEAIMKLRNWYRQTRIHSTLTLDNQNMVITKARQNKWETGNNLDVLTYTNPSYPNLDHQRSVLFINKKYFLVIDRAIGEATGNLGVHWQLKEDSNPVFDKTKNRVYTTYRDGNNLMIQSLNADRTSLNEEEGKVSYVYNKELKRPAFVFEKPKKNAGTQNFVSIVYPYDGQKAPEISIRENKGNDFEKGKLNLTLTINGKQQLVLVP
B1: the “decrease” value in test [1] is recorded as about 3 fold. Further, in test [2], the Oct-4 transcript levels result is reported as “no effect”, the VE-cadherin transcript levels result was “decreased” and the eNOS transcript levels result is listed as “decreased”.

B2: Hep-I: HSGAG-degrading enzyme; cleaves HSGAGs at highly sulfated regions; gift of Momenta Pharmaceuticals (protein, UniProt Q05819 22-384, looked up)
Heparin lyase I: QQKKSGNIPYRVNVQADSAKQKAIIDNKWVAVGINKPYALQYDDKLRFNGKPSYRFELKAEDNSLEGYAAGETKGRTELSYSYATTNDFKKFPPSVYQNAQKLKTVYHYGKGICEQGSSRSYTFSVYIPSSFPDNATTIFAQWHGAPSRTLVATPEGEIKTLSIEEFLALYDRMIFKKNIAHDKVEKKDKDGKITYVAGKPNGWKVEQGGYPTLAFGFSKGYFYIKANSDRQWLTDKADRNNANPENSEVMKPYSSEYKTSTIAYKMPFAQFPKDCWITFDVAIDWTKYGKEANTILKPGKLDVMMTYTKNKKPQKAHIVNQQEILIGRNDDDGYYFKFGIYRVGNSTVPVTYNLSGYSETAR
For B2, the “decrease” value in test [1] was “approximately 5 fold”. Also, in test [2], the Oct-4 transcript levels result was “no effect”, the VE-cadherin transcript levels entry is “significantly decreased” and the eNOS transcript levels result is listed as “significantly decreased”.
